Experimental data from patent US20090304715A1 (TOKYO UNIVERSITY OF SCIENCE, published 2009).

B1: mouse/human chimeric anti-CD20 antibody, Fc monomer (M) (antibody)
heavy: not shown
light: QIVLSQSPAILSASPGEKVTMTCRASSSLSFMHWYQQKPGSSPKPWIYATSNLASGVPARFSGSGSGTSYSLTISRVEAEDAATYFCHQWSSNPLTFGAGTKLLETVAAPSVFIFPPSDEQLKSGTASVVCLLNNFYPREAKVQWKVDNALQSGNSQESVTEQDSKDSTYSLSSTLTLSKADYEKHKVYACEVTHQGLSSPVTKSFNRGEC
notes: Variable regions of mouse 1F5, human IgG1/kappa constant regions; Produced in CHO DG44; also called Anti-CD20 HC Fc Monomer
B2: modified anti-CD20 antibody, Fc dimer with three G4S spacers (D3) (antibody)
heavy: not shown
light: QIVLSQSPAILSASPGEKVTMTCRASSSLSFMHWYQQKPGSSPKPWIYATSNLASGVPARFSGSGSGTSYSLTISRVEAEDAATYFCHQWSSNPLTFGAGTKLLETVAAPSVFIFPPSDEQLKSGTASVVCLLNNFYPREAKVQWKVDNALQSGNSQESVTEQDSKDSTYSLSSTLTLSKADYEKHKVYACEVTHQGLSSPVTKSFNRGEC
B3: modified anti-CD20 antibody, Fc trimer with two G4S spacers (T2) (antibody)
heavy: not shown
light: QIVLSQSPAILSASPGEKVTMTCRASSSLSFMHWYQQKPGSSPKPWIYATSNLASGVPARFSGSGSGTSYSLTISRVEAEDAATYFCHQWSSNPLTFGAGTKLLETVAAPSVFIFPPSDEQLKSGTASVVCLLNNFYPREAKVQWKVDNALQSGNSQESVTEQDSKDSTYSLSSTLTLSKADYEKHKVYACEVTHQGLSSPVTKSFNRGEC
B4: modified anti-CD20 antibody, Fc dimer with no spacer (D0) (antibody)
heavy: not shown
light: QIVLSQSPAILSASPGEKVTMTCRASSSLSFMHWYQQKPGSSPKPWIYATSNLASGVPARFSGSGSGTSYSLTISRVEAEDAATYFCHQWSSNPLTFGAGTKLLETVAAPSVFIFPPSDEQLKSGTASVVCLLNNFYPREAKVQWKVDNALQSGNSQESVTEQDSKDSTYSLSSTLTLSKADYEKHKVYACEVTHQGLSSPVTKSFNRGEC
B5: modified anti-CD20 antibody, Fc trimer with three G4S spacers (T3) (antibody)
heavy: not shown
light: QIVLSQSPAILSASPGEKVTMTCRASSSLSFMHWYQQKPGSSPKPWIYATSNLASGVPARFSGSGSGTSYSLTISRVEAEDAATYFCHQWSSNPLTFGAGTKLLETVAAPSVFIFPPSDEQLKSGTASVVCLLNNFYPREAKVQWKVDNALQSGNSQESVTEQDSKDSTYSLSSTLTLSKADYEKHKVYACEVTHQGLSSPVTKSFNRGEC
B6: modified anti-CD20 antibody, Fc dimer with two G4S spacers (D2) (antibody)
heavy: not shown
light: QIVLSQSPAILSASPGEKVTMTCRASSSLSFMHWYQQKPGSSPKPWIYATSNLASGVPARFSGSGSGTSYSLTISRVEAEDAATYFCHQWSSNPLTFGAGTKLLETVAAPSVFIFPPSDEQLKSGTASVVCLLNNFYPREAKVQWKVDNALQSGNSQESVTEQDSKDSTYSLSSTLTLSKADYEKHKVYACEVTHQGLSSPVTKSFNRGEC
B7: modified anti-CD20 antibody, Fc dimer with one G4S spacer (D1) (antibody)
heavy: not shown
light: QIVLSQSPAILSASPGEKVTMTCRASSSLSFMHWYQQKPGSSPKPWIYATSNLASGVPARFSGSGSGTSYSLTISRVEAEDAATYFCHQWSSNPLTFGAGTKLLETVAAPSVFIFPPSDEQLKSGTASVVCLLNNFYPREAKVQWKVDNALQSGNSQESVTEQDSKDSTYSLSSTLTLSKADYEKHKVYACEVTHQGLSSPVTKSFNRGEC
B8: modified anti-CD20 antibody, Fc trimer with no spacer (T0) (antibody)
heavy: not shown
light: QIVLSQSPAILSASPGEKVTMTCRASSSLSFMHWYQQKPGSSPKPWIYATSNLASGVPARFSGSGSGTSYSLTISRVEAEDAATYFCHQWSSNPLTFGAGTKLLETVAAPSVFIFPPSDEQLKSGTASVVCLLNNFYPREAKVQWKVDNALQSGNSQESVTEQDSKDSTYSLSSTLTLSKADYEKHKVYACEVTHQGLSSPVTKSFNRGEC
B9: modified anti-CD20 antibody, Fc trimer with one G4S spacer (T1) (antibody)
heavy: not shown
light: QIVLSQSPAILSASPGEKVTMTCRASSSLSFMHWYQQKPGSSPKPWIYATSNLASGVPARFSGSGSGTSYSLTISRVEAEDAATYFCHQWSSNPLTFGAGTKLLETVAAPSVFIFPPSDEQLKSGTASVVCLLNNFYPREAKVQWKVDNALQSGNSQESVTEQDSKDSTYSLSSTLTLSKADYEKHKVYACEVTHQGLSSPVTKSFNRGEC

Key:
[1] = target: T1, CD20 on CD20-positive human Burkitt's lymphoma Ramos cells (human, UniProt P11836 1-297); experiment: flow cytometry on CD20-positive Ramos cells, antibody 50 nM, FITC anti-human kappa
T1 construct: whole, on cells; also called B cell-specific differentiation antigen CD20
T1 sequence (looked up): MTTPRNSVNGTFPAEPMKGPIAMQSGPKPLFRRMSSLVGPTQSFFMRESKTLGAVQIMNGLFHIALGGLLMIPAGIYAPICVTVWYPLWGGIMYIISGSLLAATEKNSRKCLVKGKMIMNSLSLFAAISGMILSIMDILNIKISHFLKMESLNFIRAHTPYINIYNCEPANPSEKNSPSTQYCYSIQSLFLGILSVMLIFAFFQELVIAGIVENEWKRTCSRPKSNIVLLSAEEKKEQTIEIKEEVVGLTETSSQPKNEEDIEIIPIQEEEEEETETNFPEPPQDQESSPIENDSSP
Description: CD20-positive human Burkitt's lymphoma Ramos cells were cultured using RPMI1640 containing 10% heat-inactivated fetal bovine serum, 1 mM sodium pyruvate (Wako), 100 U/ml penicillin, and 100 μg/ml streptomycin at 37° C. under 5% CO₂. The Ramos cell culture solution was centrifuged at 600 g for five minutes. After the medium was removed, the cells were suspended in an appropriate volume of medium. After another centrifugation at 600 g for five minutes, the medium was removed. 5 ml of FACS buffer (PBS containing 0.1% BSA and 0.02% NaN₃) was added to suspend the cells, and this was left on ice and blocked for 30 minutes. The supernatant was removed after centrifugation at 600 g for five minutes, cells were suspended at 5×10⁶ cells/ml in FACS buffer, and 100 μl were aliquoted per 1.5-ml tube. […] The supernatants were removed, and cells were washed by adding 500 μl of FACS buffer. This process was repeated twice to completely remove the non-reacted antibodies. Cells were suspended in 100 μl of FACS buffer containing 20 μg/ml FITC-labeled goat anti-human Kappa chain antibody (Biosource International), and allowed to stand on ice in the dark for 30 minutes. Cells were washed with the method described above, suspended in 100 μl of FACS buffer, filtered through a mesh with a hole size of 59 μm, and transferred into FACS tubes. The CD20 binding activity of each antibody was analyzed by fluorescence measurement using FACScan (Becton Dickinson) (FIG. 8).

[2] = target: T2, recombinant FcγRIA extracellular domain-Gly-His6-GST (human, UniProt P12314 16-292); experiment: ELISA, plate-coated recombinant FcγRIA extracellular domain-Gly-His6-GST, HRP anti-human kappa
T2 construct: extracellular domain; Residues from the XbaI junction between receptor and tag are not spelled out; also called FcγRIA/Gly-His6-GST; not shown: GST amplified from pGEX-2TK
T2 sequence (P12314 other isoform, or with tags, fused parts or gaps): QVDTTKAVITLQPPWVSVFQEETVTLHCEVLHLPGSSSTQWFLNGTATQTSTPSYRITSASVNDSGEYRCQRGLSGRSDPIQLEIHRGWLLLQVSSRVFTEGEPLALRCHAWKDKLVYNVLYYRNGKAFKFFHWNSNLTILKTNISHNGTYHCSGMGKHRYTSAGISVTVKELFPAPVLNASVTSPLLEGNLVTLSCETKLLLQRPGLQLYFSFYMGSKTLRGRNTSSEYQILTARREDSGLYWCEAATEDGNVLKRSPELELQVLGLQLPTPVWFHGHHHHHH
Description: (§1) The prepared FcγR (FcγRIA, FcγRIIA, FcγRIIB, FcγRIIIA^Val, and FcγRIIIA^Phe) were adjusted to 4 μg/ml with PBS, aliquoted into 96-well plates at 50 μl per well, and allowed to stand at 4° C. overnight. Then the solutions were discarded and 180 μl of ELISA Assay buffer (0.5% BSA, 2 mM EDTA, 0.05% Tween20, 25 mM TBS (pH 7.4)) was added to each well. The plates were allowed to stand and blocked at 37° C. for 2 hours. The solutions were discarded, 50 μl of antibody solutions serially diluted with ELISA Assay buffer were added to each well and allowed to react at 37° C. for two hours. The antibody solutions were discarded and wells were washed three times with 150 μl of ELISA Assay buffer. 50 μl of ELISA Assay buffer containing 0.33 μg/ml HRP-labeled goat anti-human Kappa chain antibody was aliquoted into each well and allowed to stand at 37° C. for one hour. After the antibody solution was removed, wells were washed three times with 150 μl of ELISA Assay buffer. 50 μl of a substrate solution (sodium citrate buffer (pH 5.0) containing 0.4% o-phenylenediamine dihydrochloride and 0.003% H₂O₂) was aliquoted and allowed to stand at room temperature in the dark for ten minutes. Then measurements at A450 were carried out using a microplate reader (FIG. 9).

[3] = target: T3, recombinant FcγRIIB extracellular domain-Gly-His6-GST (human, UniProt P31994 43-217); experiment: ELISA, plate-coated recombinant FcγRIIB; Ab50 = antibody concentration at 50% of maximal binding
T3 construct: extracellular domain; Expressed in 293T cells, purified on Ni-NTA; also called FcγRIIB/Gly-His6-GST; not shown: GST amplified from pGEX-2TK
T3 sequence: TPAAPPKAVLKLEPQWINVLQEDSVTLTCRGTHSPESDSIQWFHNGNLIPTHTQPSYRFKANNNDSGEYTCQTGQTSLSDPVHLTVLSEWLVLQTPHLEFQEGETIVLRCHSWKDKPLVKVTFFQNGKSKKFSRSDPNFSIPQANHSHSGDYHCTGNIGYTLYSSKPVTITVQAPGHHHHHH
Description: as §1

[4] = target: T4, recombinant FcγRIIIA (Val^158 type) extracellular domain-Gly-His6-GST (human, UniProt P08637 17-208); experiment: ELISA, plate-coated recombinant FcγRIIIA (Val158); Ab50 = antibody concentration at 50% of maximal binding
T4 construct: extracellular domain; Valine at position 158 (printed once as 157V); The database entry may carry Phe at this position; also called type-V FcγRIIIA; FcγRIIIA(157V); not shown: GST amplified from pGEX-2TK
T4 sequence (P08637 other isoform, or with tags, fused parts or gaps): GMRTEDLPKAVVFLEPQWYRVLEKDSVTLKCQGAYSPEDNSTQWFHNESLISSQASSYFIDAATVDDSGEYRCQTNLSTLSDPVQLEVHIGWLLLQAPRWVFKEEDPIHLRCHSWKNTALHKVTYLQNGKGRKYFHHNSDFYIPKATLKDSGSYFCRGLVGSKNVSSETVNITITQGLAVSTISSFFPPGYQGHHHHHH
Description: as §1

[5] = target: T5, recombinant FcγRIIA extracellular domain-Gly-His6-GST (human, UniProt P12318 34-217); experiment: ELISA, plate-coated recombinant FcγRIIA; Ab50 = antibody concentration at 50% of maximal binding; reference M
T5 construct: extracellular domain; Expressed in 293T cells, purified on Ni-NTA; also called FcγRIIA/Gly-His6-GST; not shown: GST amplified from pGEX-2TK
T5 sequence: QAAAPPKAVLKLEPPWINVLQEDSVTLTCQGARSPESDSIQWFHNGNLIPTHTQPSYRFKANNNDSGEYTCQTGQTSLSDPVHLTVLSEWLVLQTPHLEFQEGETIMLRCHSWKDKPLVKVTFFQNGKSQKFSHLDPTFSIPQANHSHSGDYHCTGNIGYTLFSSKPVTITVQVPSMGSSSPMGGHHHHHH
Description: as §1

Row | Binder | binding result [1] | binding result [2] | EC50 [3] | EC50 [4] | fold difference of Ab50 against M [5]
1 | B1 | binds | binds | ~50 nM | ~30 nM | 
2 | B2 | binds | binds | ~5 nM | ~2 nM | ~60 times
3 | B3 |  |  | ~0.5 nM | ~0.5 nM | ~100 times
4 | B4 | binds | binds |  | ~2 nM | 
5 | B5 |  |  | ~0.5 nM | ~0.5 nM | ~100 times
6 | B6 |  |  |  | ~30 nM | 
7 | B7 |  |  |  | ~30 nM | 
8 | B8 | binds | binds |  | ~2 nM | ~100 times
9 | B9 |  |  | ~0.5 nM | ~0.5 nM | ~100 times
